In the supplement of paper PMC10065799, “High-throughput profiling of sequence recognition by tyrosine kinases and SH2 domains using bacterial peptide display” (eLife, 2023) one finds SH2 binding enrichment and phosphorylation enrichment data, which are given here for eight sequences.

The target in one data set is c-Src SH2. As to the kind of experiment: SH2 binding enrichment of the phosphorylated peptide, bacterial display (enrichment ratio); higher = better substrate or ligand; peptides without Tyr show the background.
A further data set has as its target Grb2 SH2 (UniProt P62993). The data set is described as above.
The target in the next data set is SHP2-C SH2. The description is as above.
The next data set deals with MERTK (UniProt Q12866). The experiment in a line: phosphorylation enrichment, bacterial display (enrichment ratio); higher = better substrate or ligand; peptides without Tyr show the background.
Chain of MERTK (Q12866 whole entry, looked up): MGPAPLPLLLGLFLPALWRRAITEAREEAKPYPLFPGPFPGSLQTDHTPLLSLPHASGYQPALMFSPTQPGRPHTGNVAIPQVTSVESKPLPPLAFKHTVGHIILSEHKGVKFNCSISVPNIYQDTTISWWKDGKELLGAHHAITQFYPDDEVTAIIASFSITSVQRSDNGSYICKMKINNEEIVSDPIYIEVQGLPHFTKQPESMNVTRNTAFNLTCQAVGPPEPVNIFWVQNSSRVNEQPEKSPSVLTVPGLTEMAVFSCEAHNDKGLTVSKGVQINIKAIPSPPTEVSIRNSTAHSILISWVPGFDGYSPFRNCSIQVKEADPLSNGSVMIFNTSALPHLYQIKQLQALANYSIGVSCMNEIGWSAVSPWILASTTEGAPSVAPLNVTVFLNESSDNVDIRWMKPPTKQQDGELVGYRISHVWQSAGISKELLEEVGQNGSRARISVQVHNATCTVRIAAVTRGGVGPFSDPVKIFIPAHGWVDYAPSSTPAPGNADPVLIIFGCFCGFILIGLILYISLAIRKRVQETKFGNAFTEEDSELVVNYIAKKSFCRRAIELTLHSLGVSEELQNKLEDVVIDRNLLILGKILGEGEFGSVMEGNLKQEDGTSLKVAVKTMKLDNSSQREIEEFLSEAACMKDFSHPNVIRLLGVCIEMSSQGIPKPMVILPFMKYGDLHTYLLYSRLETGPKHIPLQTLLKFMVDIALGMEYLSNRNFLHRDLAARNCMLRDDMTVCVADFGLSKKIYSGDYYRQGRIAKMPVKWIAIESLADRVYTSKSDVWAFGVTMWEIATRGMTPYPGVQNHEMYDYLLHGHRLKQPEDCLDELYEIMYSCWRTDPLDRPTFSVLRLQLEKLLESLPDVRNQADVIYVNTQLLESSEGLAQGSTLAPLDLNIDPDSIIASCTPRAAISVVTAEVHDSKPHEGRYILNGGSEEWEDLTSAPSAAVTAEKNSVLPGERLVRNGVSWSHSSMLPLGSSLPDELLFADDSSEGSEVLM
The next data set has as its target Hck (UniProt P08631). The description is as above.
For a further data set, the system named is AncSZ. The data set is described as above.
The next data set concerns the target EPHB2 (UniProt P29323). The description is as above.
The subject of the next data set is c-Abl (mouse). The data set is described as above.
Another data set concerns the target Fyn (UniProt P06241). The description is as above.
Another data set has as its system c-Src. The data set is described as above.
The next data set concerns the target Jak2 (UniProt O60674). The description is as above.
The target in a further data set is EPHB1 (UniProt P54762). The data set is described as above.
For another data set, the target named is FGFR3 (UniProt P22607). The data set is described as above.
Chain of FGFR3 (P22607 whole entry, looked up): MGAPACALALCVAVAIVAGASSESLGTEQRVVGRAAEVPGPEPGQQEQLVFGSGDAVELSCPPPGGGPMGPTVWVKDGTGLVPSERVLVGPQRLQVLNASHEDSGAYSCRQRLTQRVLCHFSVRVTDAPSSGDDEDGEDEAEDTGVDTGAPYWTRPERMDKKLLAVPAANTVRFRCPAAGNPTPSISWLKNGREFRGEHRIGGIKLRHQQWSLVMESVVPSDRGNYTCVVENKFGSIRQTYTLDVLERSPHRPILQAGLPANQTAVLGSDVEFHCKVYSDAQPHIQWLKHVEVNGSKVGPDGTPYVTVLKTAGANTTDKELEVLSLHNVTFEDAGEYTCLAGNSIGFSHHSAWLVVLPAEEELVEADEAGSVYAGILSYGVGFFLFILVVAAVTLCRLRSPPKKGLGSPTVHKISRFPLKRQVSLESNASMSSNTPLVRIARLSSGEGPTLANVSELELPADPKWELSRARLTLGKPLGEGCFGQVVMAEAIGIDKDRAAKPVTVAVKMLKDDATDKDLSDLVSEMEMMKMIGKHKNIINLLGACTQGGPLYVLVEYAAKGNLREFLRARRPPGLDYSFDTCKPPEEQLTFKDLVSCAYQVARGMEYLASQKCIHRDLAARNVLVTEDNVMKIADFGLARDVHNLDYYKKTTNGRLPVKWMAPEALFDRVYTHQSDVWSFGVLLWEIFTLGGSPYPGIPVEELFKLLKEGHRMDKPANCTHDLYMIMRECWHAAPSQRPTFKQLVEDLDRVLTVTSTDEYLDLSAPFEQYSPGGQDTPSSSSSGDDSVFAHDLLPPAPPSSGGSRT
The next data set addresses FGFR1 (UniProt P11362). Described as above.
Another data set concerns the target Fes (UniProt P07332). Described as above.
The test system of the next data set is Fer (mouse). The description is as above.
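Throughout, for SH2 binding enrichment of the phosphorylated peptide, bacterial display: peptide library displayed on the E. coli surface as eCPX fusions, selected cells deep-sequenced, score is each peptide's frequency after selection divided by its frequency in the input.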
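Throughout, for phosphorylation enrichment, bacterial display: 11-residue human phosphosite peptides and single-mutation variants displayed on the E. coli surface, counted by deep sequencing, each peptide's frequency after selection divided by its frequency in the unselected input library; frequency after pTyr selection over input frequency; kinase dosed for 20-30% of maximal phosphorylation in three min.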

Chain of EPHB2 (P29323 whole entry, looked up): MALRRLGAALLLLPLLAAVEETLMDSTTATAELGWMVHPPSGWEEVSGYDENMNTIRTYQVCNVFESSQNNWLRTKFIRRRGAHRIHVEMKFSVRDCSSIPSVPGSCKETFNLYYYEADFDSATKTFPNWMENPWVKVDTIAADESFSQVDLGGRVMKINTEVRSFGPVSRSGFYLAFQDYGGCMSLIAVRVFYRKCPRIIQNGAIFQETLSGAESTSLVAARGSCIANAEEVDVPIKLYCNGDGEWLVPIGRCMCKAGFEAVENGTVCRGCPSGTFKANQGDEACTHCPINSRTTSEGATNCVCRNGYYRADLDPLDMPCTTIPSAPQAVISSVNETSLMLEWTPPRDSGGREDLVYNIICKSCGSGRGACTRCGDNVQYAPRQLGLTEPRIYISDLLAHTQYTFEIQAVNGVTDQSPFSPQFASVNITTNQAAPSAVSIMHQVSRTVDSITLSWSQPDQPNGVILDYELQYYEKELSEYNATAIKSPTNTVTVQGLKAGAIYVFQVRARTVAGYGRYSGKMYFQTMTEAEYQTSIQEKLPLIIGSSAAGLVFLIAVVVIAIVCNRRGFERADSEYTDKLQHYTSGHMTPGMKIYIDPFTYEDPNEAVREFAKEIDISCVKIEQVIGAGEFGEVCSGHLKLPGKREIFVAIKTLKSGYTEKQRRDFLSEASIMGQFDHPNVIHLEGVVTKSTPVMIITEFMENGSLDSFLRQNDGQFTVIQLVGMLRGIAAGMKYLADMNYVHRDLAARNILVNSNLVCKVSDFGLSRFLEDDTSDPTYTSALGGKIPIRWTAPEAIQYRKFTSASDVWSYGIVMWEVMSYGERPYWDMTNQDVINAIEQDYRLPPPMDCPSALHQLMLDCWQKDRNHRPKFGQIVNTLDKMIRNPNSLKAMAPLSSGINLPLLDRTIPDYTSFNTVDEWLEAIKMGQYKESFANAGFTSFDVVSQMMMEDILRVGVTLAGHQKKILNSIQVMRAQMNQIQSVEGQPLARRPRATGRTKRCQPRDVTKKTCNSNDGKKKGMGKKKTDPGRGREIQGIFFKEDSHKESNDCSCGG
Chain of Hck (P08631 whole entry, looked up): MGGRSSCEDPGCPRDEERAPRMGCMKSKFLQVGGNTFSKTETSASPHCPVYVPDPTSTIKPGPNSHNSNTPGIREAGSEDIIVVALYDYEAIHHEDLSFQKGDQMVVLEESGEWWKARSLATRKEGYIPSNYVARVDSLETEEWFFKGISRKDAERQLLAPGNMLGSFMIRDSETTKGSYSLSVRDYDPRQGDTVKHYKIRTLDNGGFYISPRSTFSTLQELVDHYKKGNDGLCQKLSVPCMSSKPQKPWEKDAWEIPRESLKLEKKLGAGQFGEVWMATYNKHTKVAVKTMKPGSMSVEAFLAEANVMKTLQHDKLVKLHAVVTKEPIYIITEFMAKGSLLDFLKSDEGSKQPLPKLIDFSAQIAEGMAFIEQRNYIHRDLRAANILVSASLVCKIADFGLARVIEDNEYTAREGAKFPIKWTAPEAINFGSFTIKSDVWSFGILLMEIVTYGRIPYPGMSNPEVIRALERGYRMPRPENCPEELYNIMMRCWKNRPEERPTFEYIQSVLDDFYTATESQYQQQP
Chain of Grb2 SH2 (P62993 whole entry, looked up): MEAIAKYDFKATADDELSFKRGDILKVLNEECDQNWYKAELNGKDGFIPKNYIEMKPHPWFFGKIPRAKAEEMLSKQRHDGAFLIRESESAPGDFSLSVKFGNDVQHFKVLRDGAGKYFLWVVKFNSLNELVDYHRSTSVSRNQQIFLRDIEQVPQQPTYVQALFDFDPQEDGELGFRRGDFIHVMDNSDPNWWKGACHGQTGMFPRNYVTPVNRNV
Chain of Fes (P07332 whole entry, looked up): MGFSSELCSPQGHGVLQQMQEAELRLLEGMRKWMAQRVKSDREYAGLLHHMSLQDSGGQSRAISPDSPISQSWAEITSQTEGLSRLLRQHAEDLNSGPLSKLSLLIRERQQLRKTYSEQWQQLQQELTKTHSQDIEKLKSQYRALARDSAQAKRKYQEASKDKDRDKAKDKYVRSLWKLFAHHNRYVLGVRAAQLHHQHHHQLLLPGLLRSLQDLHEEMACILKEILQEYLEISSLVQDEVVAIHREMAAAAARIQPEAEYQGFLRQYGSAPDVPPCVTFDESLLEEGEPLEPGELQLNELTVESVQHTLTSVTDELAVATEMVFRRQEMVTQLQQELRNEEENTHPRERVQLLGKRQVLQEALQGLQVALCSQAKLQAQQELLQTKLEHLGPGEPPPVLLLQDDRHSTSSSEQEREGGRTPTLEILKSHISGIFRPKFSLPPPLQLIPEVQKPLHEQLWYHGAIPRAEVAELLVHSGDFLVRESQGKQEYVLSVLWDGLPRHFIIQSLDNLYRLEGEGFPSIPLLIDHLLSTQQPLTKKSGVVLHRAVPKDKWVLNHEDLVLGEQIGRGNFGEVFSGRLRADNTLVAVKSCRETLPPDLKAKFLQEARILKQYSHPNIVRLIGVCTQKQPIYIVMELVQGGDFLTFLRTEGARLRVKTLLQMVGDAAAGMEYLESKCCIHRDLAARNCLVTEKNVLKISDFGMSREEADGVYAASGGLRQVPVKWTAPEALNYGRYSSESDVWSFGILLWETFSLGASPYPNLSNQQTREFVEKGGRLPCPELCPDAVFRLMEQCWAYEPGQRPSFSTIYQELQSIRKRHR
Chain of Fyn (P06241 whole entry, looked up): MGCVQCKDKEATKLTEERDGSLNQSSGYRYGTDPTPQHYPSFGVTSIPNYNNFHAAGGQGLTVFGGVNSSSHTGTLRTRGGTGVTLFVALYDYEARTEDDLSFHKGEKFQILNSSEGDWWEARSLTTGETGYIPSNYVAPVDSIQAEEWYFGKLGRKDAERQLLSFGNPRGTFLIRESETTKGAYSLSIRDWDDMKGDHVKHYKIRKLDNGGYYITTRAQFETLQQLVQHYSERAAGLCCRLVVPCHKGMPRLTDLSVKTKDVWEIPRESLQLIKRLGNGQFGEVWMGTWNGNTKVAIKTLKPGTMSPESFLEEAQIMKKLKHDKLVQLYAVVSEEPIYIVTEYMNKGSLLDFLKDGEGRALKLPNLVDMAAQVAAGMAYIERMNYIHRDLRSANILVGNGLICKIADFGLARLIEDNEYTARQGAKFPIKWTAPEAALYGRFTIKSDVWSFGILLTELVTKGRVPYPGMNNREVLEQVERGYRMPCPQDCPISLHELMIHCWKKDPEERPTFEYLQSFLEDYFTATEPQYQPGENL

For ACQGKYTPSGQ [ALDOA_Y343], the results for the SH2 binding enrichment with c-Src SH2, with Grb2 SH2 and with SHP2-C SH2 were 0.551, 0.843 and 0.75, respectively. In addition, the phosphorylation enrichment with MERTK turned out to be 0.378; with Hck, 0.46; in the data set with AncSZ, 0.598; with EPHB2, 0.402; in the data set with c-Abl (mouse), 0.693; with Fyn it was 0.479. In addition, the phosphorylation enrichment in the data set on c-Src turned out to be 0.463; in the data set with Jak2 it was 0.851; with EPHB1 it was 0.414; with FGFR3, 0.734; with FGFR1, 0.406; with Fes, 0.742. Besides, the phosphorylation enrichment in the data set on Fer (mouse) is 0.531.

Consider ATHSRYRLNDY [CLDN14_Y233_G232R], for which the SH2 binding enrichment with c-Src SH2 is 0.682; with Grb2 SH2 it was 0.744; with SHP2-C SH2 it was 0.563. For the same sequence, the phosphorylation enrichment with MERTK came out at 0.459; in the data set with Hck, 0.505; in the data set with AncSZ, 0.562; with EPHB2, 0.371; with c-Abl (mouse), 0.476; with Fyn, 0.442. Besides, the phosphorylation enrichment with c-Src turned out to be 0.417; in the data set with Jak2 it was 0.406; with EPHB1 it was 0.484; with FGFR3 it was 0.468; with FGFR1, 0.387; with Fes, 0.735. Also, in the data set with Fer (mouse), the phosphorylation enrichment turned out to be 0.37.

On to SYCYRYCCAAR [SUMF1_Y344_R345C], for which the SH2 binding enrichment with c-Src SH2 stood at 0.931; with Grb2 SH2, 1.13; in the data set with SHP2-C SH2 it was 0.627. For the same sequence, the phosphorylation enrichment was determined as 0.437 with MERTK; 0.497 with Hck; 0.968 in the data set on AncSZ; 0.553 in the data set with EPHB2; 0.622 in the data set with c-Abl (mouse); 0.43 in the data set with Fyn. In addition, the phosphorylation enrichment with c-Src turned out to be 0.369; with Jak2 it was 0.679; with EPHB1, 0.392; with FGFR3, 0.769; in the data set with FGFR1 it was 0.47; with Fes, 0.976. Besides, the phosphorylation enrichment in the data set on Fer (mouse) was found to be 0.457.

Take RLLVFYPWTQR [HBB_Y36_V35F]: the values for the SH2 binding enrichment in the data set with c-Src SH2, in the data set with Grb2 SH2 and with SHP2-C SH2 were 1.8, 2.4 and 2.1, respectively. The phosphorylation enrichment with MERTK turned out to be 0.512; in the data set with Hck it was 0.557; in the data set with AncSZ it was 2.05; with EPHB2, 0.938; in the data set on c-Abl (mouse) it was 1.02; in the data set with Fyn, 0.616. For the same sequence, the phosphorylation enrichment is 0.509 in the data set on c-Src; 1.73 in the data set with Jak2; 0.794 in the data set with EPHB1; 0.891 in the data set with FGFR3; 0.877 in the data set with FGFR1; 1.47 with Fes. Moreover, the phosphorylation enrichment with Fer (mouse) came to 0.65.

With KMKGDYYRSLA [YWHAG_Y130_Y133S], the SH2 binding enrichment amounted to 0.891 with c-Src SH2, 0.888 with Grb2 SH2 and 0.87 in the data set with SHP2-C SH2. Also, the phosphorylation enrichment with MERTK was 0.434; with Hck it was 0.444; in the data set with AncSZ it was 0.54; in the data set with EPHB2, 0.401; with c-Abl (mouse), 0.541; in the data set with Fyn, 0.388. Moreover, the phosphorylation enrichment in the data set on c-Src amounted to 0.389; with Jak2, 0.616; with EPHB1, 0.369; with FGFR3, 0.513; in the data set with FGFR1 it was 0.718; with Fes, 0.562. For the same sequence, the phosphorylation enrichment in the data set with Fer (mouse) came out at 0.325.

On to VFFGSYSCPFG [NKAP_Y104_R106C_YF], for which the SH2 binding enrichment with c-Src SH2 was found to be 0.476; with Grb2 SH2, 0.598; with SHP2-C SH2, 0.552. Moreover, the phosphorylation enrichment was 0.836 with MERTK; 0.518 with Hck; 1.45 in the data set on AncSZ; 0.786 with EPHB2; 1.15 in the data set on c-Abl (mouse); 0.437 in the data set with Fyn. Also, the phosphorylation enrichment in the data set on c-Src was determined as 0.55; with Jak2, 1.33; in the data set with EPHB1, 0.802; with FGFR3, 0.92; with FGFR1 it was 0.476; with Fes, 1.5. The phosphorylation enrichment in the data set on Fer (mouse) was 0.679.

As for KLIETYSSKNY [PLP1_Y50_F51S], the SH2 binding enrichment came to 0.522 in the data set with c-Src SH2, 0.912 with Grb2 SH2 and 0.703 with SHP2-C SH2. The phosphorylation enrichment with MERTK amounted to 0.539; with Hck, 0.536; in the data set with AncSZ, 0.649; in the data set with EPHB2 it was 0.759; with c-Abl (mouse), 0.591; with Fyn, 0.429. The phosphorylation enrichment in the data set on c-Src was 0.543; in the data set with Jak2, 0.653; with EPHB1, 0.684; in the data set with FGFR3 it was 0.619; with FGFR1, 0.584; with Fes, 0.838. For the same sequence, in the data set with Fer (mouse), the phosphorylation enrichment stood at 0.44.

As to PGPPGYCDSSH [COL12A1_Y3043_Q3048H], the SH2 binding enrichment with c-Src SH2 was found to be 0.498; in the data set with Grb2 SH2 it was 1.08; with SHP2-C SH2, 0.671. The phosphorylation enrichment turned out to be 0.84 with MERTK; 1.58 with Hck; 1.09 in the data set on AncSZ; 0.514 in the data set with EPHB2; 1.21 in the data set on c-Abl (mouse); 0.46 with Fyn. Besides, the phosphorylation enrichment in the data set with c-Src turned out to be 0.727; in the data set with Jak2, 1.16; with EPHB1 it was 0.724; with FGFR3, 0.941; with FGFR1, 0.512; in the data set with Fes, 1.62. Moreover, the phosphorylation enrichment in the data set with Fer (mouse) turned out to be 0.542.
